# Patent publication US12048734B2, “Bioactive peptides and methods of use thereof” (OP-T LLC, priority 2020, dated 2024)
# B1: galectin-9: galectin-9 protein added to Th40 cell cultures (protein, UniProt O00182 1-355, looked up)
# Galectin-9: MAFSGSQAPYLSPAVPFSGTIQGGLQDGLQITVNGTVLSSSGTRFAVNFQTGFSGNDIAFHFNPRFEDGGYVVCNTRQNGSWGPEERKTHMPFQKGMPFDLCFLVQSSDFKVMVNGILFVQYFHRVPFHRVDTISVNGSVQLSYISFQNPRTVPVQPAFSTVPFSQPVCFPPRPRGRRQKPPGVWPANPAPITQTVIHTVQSAPGQMFSTPAIPPMMYPHPAYPMPFITTILGGLYPSKSILLSGTVLPSAQRFHINLCSGNHIAFHLNPRFDENAVVRNTQIDNSWGSEERSLPRKMPFVRGQSFSVWILCEAHCLKVAVDGQHLFEYYHRLRNLPTINRLEVGGDIQLTHVQT
# Tested on: CD4loCD40+ T cells (Th40 cells)
# Assay: Cytokine production of CD40- or CD3-stimulated Th40 cells with galectin-9
# Assay type: cell-based, NOD mice
# Conditions: 3 days; indicated concentrations of galectin-9
# Method: CD4loCD40+ T cells (Th40 cells) were sorted from 7-20 weeks old female NOD spleens. Cells were either isotype treated, CD40- or CD3-stimulated in the absence/presence of indicated concentrations of galectin-9 (gal-9; mg/ml) for 3 days then cytokines were measured. Bar graphs depict means with SEM. Asterisks denote significant differences determined by one-way Anova; *-P between 0.01 and 0.05; **-P, 0.01; ***-P, 0.001. Measurements were done on four individual mice of different ages.
molecule,measurement,value
B1,CD40 and CD3 induced cytokine production level,alters the production level
